Laboratory results as given in paper PMC3834821.

Biological target: T1, GST-DAZAP1 (UniProt Q9JII5)
T1 sequence: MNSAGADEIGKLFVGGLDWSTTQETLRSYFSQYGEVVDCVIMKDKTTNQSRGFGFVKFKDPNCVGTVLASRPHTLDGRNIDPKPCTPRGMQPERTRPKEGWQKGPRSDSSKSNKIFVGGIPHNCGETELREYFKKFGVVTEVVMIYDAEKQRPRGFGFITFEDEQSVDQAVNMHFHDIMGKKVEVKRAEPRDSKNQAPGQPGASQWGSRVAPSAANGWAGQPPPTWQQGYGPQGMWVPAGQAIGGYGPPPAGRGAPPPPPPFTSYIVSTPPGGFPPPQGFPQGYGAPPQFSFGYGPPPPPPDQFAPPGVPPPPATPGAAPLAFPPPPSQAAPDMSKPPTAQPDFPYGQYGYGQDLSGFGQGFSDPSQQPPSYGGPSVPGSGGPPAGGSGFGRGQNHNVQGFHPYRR
Experiment: EMSA
Settings: 20 mM HEPES pH 7.6, 3 mM MgCl2, 40 mM KCl, 2 mM DTT, 5% glycerol, 5 mg/ml heparin; room temperature, 15 min; native 5% PAGE in 0.25x TBE; RNA 0.5-3.0 nM for Kd

Row | Sequence | Kd
1 | AAGGUGAUAUUUAGUAUAUAGUGACAAUUUAUG [Pot1a-dA] | 7.04 nM
2 | AAGGUGAUAUUUAGUAUAUAGUGACACGUAAACAUUUAUG [Pot1a-Wt] | 7.82 nM
3 | AAGGUGAUAUUUAUGACACGUAAACAUUUAUG [Pot1a-dE] | 301 nM
4 | AAGUGUGAUAUAAUUCACUAUAGAGGU [Crisp2-dB] | 81.8 nM
5 | AAGUGUGAUAUAAUUCACUGGUAGUUUAUCAUAGAGGU [Crisp2-WtB] | 33.7 nM
6 | ACCUCCUAAUGGUAAGUACCCUACUUGUUCUUCAUUUCUU [Crem-Wt] | 18.9 nM
7 | ACCUCCUAAUUUGUUCUUCAUUUCUU [Crem-dA] | 169 nM
8 | AUCAUAGAAUUUUAGUUUAUUCUGUGAACUUCAAAAUUGACU [Crisp2-dC] | 70.3 nM
9 | AUCAUAGAGGUAGCAUUUUAGUUUAUUCUGUGAACUUCAAAAUUGACU [Crisp2-WtC] | 15.1 nM
